Source: patent US20200102373A1

Molecular target: biotin-labeled HA peptide
Experiment: SPR (OpenSPR), biotin-labeled HA peptide on a Streptavidin chip, purified FB-GFP in solution, one-to-one model, two independent experiments

Substance: purified recombinant HA frankenbody fused with mEGFP and a hexahistidine tag (purified FB-GFP, from E. coli) (scFv)
- Kd: 14.7 nM
